Assay results from the supplement of paper PMC10567573.

B1: ZNF277 (parent)
chain: ILREELQKQRLREILEQQQQERND

Variants of: B1
Experiment: protein stability index of a GFP-peptide fusion (GPS, HEK-293T) (PSI 1-6); higher = more stable
Details: c terminus: a fixed tail appended
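Note: lentivirally expressed fusions sorted by FACS into six bins by GFP to DsRed ratio, PSI derived from sequencing read proportions per bin multiplied by bin number.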

Variant | protein stability index
ILREELQKQRLREILEQQWQERND | 2.85
ILREELQKQRLREILEQQQSERND | 4.37
ILREELQKYRLREILEQQQQERND | 3.9
ILREELQKQRLREILEQQNQERND | 3.5
ILREELQKQRLREILHQQQQERND | 3.87
ILREELQKQRLREIREQQQQERND | 4.82
ILREELQQQRLREILEQQQQERND | 4.98
ILREELQKQRLRENLEQQQQERND | 4.46
ILREELQKQRLREALEQQQQERND | 5.04
ILREELQKQRLREILEQQQQERNG | 3.77
IAREELQKQRLREILEQQQQERND | 5.13
ILREELQKQRLREILEQNQQERND | 4.37
ILREPLQKQRLREILEQQQQERND | 4.47
ILREELQKQRFREILEQQQQERND | 4.09
ILREELQKQRLRRILEQQQQERND | 4.11
ILREELQKQRLQEILEQQQQERND | 4.72
IQREELQKQRLREILEQQQQERND | 5.61
ILREELQKQRLREIEEQQQQERND | 4.99
ILREELQKQRLREILEQQQQEFND | 3.81
ILREELQKQRLRPILEQQQQERND | 4.56
ILREELQKQRLRFILEQQQQERND | 3.77
ILREELQKQRLREILEQQQQEDND | 4.92
ILREELQKDRLREILEQQQQERND | 4.98
ILREEWQKQRLREILEQQQQERND | 5.58

Variant | protein stability index
ILRWELQKQRLREILEQQQQERND | 3.28
ILREHLQKQRLREILEQQQQERND | 3.81
ILREELGKQRLREILEQQQQERND | 5.06
ILREELQKQRLREILEQQQQEYND | 4.54
ILREELQKQRIREILEQQQQERND | 4.52
ILREELQKQRLREILEQQQQEPND | 4.57
ILREELQKQRLRMILEQQQQERND | 4.01
CLREELQKQRLREILEQQQQERND | 4.79
ILREELQKQRLREILEQLQQERND | 3.37
ILREELQKQRLREILEQQQGERND | 4.22
ILREELQKQRLRECLEQQQQERND | 4.13
ILREELQKQRLGEILEQQQQERND | 5.05
ILREELQKQRLREILEQQLQERND | 3.87
ILRGELQKQRLREILEQQQQERND | 4.89
ILREELQKQRDREILEQQQQERND | 4.8
ILREELQKQRLREILMQQQQERND | 3.81
ILRNELQKQRLREILEQQQQERND | 4.16
IYREELQKQRLREILEQQQQERND | 4.81
ILREELQKGRLREILEQQQQERND | 4.05
ILREELQKQRLREILEQQQQRRND | 2.69
ILREELQKQRLREILEQQDQERND | 4.4
ILREELQKQRLEEILEQQQQERND | 5.08
ILREEIQKQRLREILEQQQQERND | 4.56
ILREELQKQRLREGLEQQQQERND | 4.74

Variant | protein stability index
ILREELQKQRHREILEQQQQERND | 4.94
ILREELQKQRLREILEQQQQERID | 4.02
ILREELQKQRLREILEQQQQEKND | 4.63
ILREELPKQRLREILEQQQQERND | 5
IWREELQKQRLREILEQQQQERND | 3.79
ILREELQCQRLREILEQQQQERND | 3.96
ILREELQKQRLREKLEQQQQERND | 3.53
ILREELQKQRLREILEWQQQERND | 3.49
ILREELQKQRLREILEQQQMERND | 3.96
ILREELQKQRLREILEQQQQERKD | 4.1
ILREELQKQRLREILEQQQQEWND | 3.72
ILREELQKQRLREILEQQQQFRND | 3.4
ILREELQKQALREILEQQQQERND | 4.38
ILREELTKQRLREILEQQQQERND | 3.62
ILREELQKQRLREILTQQQQERND | 4.71
ILREESQKQRLREILEQQQQERND | 4.44
ILREELQKQRLREILFQQQQERND | 3.66
ILREELQKQRGREILEQQQQERND | 5.22
ILREELQKSRLREILEQQQQERND | 4.41
ILREEYQKQRLREILEQQQQERND | 4.22
IPREELQKQRLREILEQQQQERND | 4.86
ILREELQKQRLREILEQQQQERAD | 4.53
ILREELQKFRLREILEQQQQERND | 4.12
ILREELQKQRLREILEQMQQERND | 3.59

Variant | protein stability index
ILREENQKQRLREILEQQQQERND | 4.65
ILREELQKQRNREILEQQQQERND | 4.76
ILREELQKQRLREILEQQQQERNC | 3.91
ILREELQKQRLREILEQQQQEMND | 4.45
ILREELQKQRLREILRQQQQERND | 3.53
ILREELQKQMLREILEQQQQERND | 3.58
ILRHELQKQRLREILEQQQQERND | 3.95
ILREELQKQRLREILEQQQHERND | 3.94
ILREELQKVRLREILEQQQQERND | 4.15
ILVEELQKQRLREILEQQQQERND | 4.01
ILREELQIQRLREILEQQQQERND | 3.1
ILREELQKQRLREILEQQQQDRND | 4.22
ILREELQKQRLREILEQQQQERDD | 4.96
ILREELQKQRLREILEQQQQERNI | 3.64
ILRENLQKQRLREILEQQQQERND | 4.7
ILREELQKQRLREILEQQQQERSD | 4.05
ILREELQKQRLREILEQQQQNRND | 3.9
ILREELQKQFLREILEQQQQERND | 3.47
ILREELQKQRLREILECQQQERND | 3.6
ILREELRKQRLREILEQQQQERND | 4.1
ILREELQKQRLREILEQQQQERNY | 3.7
ILREELQKQRLRQILEQQQQERND | 4.22
ILEEELQKQRLREILEQQQQERND | 5.21
ILREELQKQRLREILEQQQQERGD | 3.98

Variant | protein stability index
ILREELQKQRLREILEQQQQERLD | 3.92
ILREELQKQRLREIKEQQQQERND | 4.37
ILREELQKQRLREILEQIQQERND | 2.52
IFREELQKQRLREILEQQQQERND | 4.55
ILREELQKQRLRVILEQQQQERND | 4.06
ILREELQKQRLREIGEQQQQERND | 4.94
ILREELQKQRLREILEQQQCERND | 4.2
ILREELQKQRLREIMEQQQQERND | 4.03
ILREELNKQRLREILEQQQQERND | 4.44
ILREELEKQRLREILEQQQQERND | 5.22
ILREELQKQRLREILEVQQQERND | 4.22
ILREELQKQRLREILEQQQQEIND | 3.81
ILREELKKQRLREILEQQQQERND | 3.46
ILREELQKQRTREILEQQQQERND | 4.66
ILWEELQKQRLREILEQQQQERND | 2.56
ILREELQKQRLREILEAQQQERND | 3.83
ILRLELQKQRLREILEQQQQERND | 3.05
ILREELQKQRLRIILEQQQQERND | 4.06
ILREELQEQRLREILEQQQQERND | 5.3
ILREELQKQRLNEILEQQQQERND | 4.86
ILREELQKQRLREILEQYQQERND | 2.9
ILREELQKQRLREILEQQMQERND | 3.35
ILREELQKCRLREILEQQQQERND | 4.41
ILREELQKQRLREILEQQQQESND | 4.73

Variant | protein stability index
ILREELQKPRLREILEQQQQERND | 4.52
ILREELQKQRLREILEQDQQERND | 4.46
IMREELQKQRLREILEQQQQERND | 4.21
ILREELQKQRMREILEQQQQERND | 4.91
ILREELQKQRVREILEQQQQERND | 2.73
ILREELQKQRLREILEQQQQERNA | 3.47
ILREELQKQRLCEILEQQQQERND | 4.45
ILREELQKQRLTEILEQQQQERND | 5.29
ILREELQKQRLREILEQCQQERND | 3.31
ILREELQKLRLREILEQQQQERND | 4.41
ILREELQKMRLREILEQQQQERND | 4.32
ILREELQKQRLREILEQQQQHRND | 4.61
ILREELQKQRLREYLEQQQQERND | 4.34
ILREELQKQRLRCILEQQQQERND | 3.76
ILQEELQKQRLREILEQQQQERND | 4.69
ILREELQKWRLREILEQQQQERND | 3.53
ILREELQKQRLREILEQQQQERRD | 3.75
ILREELQKQRPREILEQQQQERND | 4.38
TLREELQKQRLREILEQQQQERND | 5.08
ILREELQKTRLREILEQQQQERND | 4.01
ILREELQKQRLHEILEQQQQERND | 4.14
ILREEDQKQRLREILEQQQQERND | 4.76
ILREELQKQRLREILEQQQEERND | 5.03
ILREELQKQRLREIWEQQQQERND | 4.14

Variant | protein stability index
ILREELQKQRLREILEQWQQERND | 4.15
ILREELQRQRLREILEQQQQERND | 3.66
ILREELLKQRLREILEQQQQERND | 3.64
ILREEQQKQRLREILEQQQQERND | 3.69
ILRECLQKQRLREILEQQQQERND | 3.76
ILREELQKIRLREILEQQQQERND | 4.18
ILREELCKQRLREILEQQQQERND | 4.24
ILREELQKQRLREILEQQQQCRND | 3.04
ILREILQKQRLREILEQQQQERND | 2.94
ILREELQSQRLREILEQQQQERND | 4.81
ILREELQKQRLREILGQQQQERND | 3.51
ILREELQKQRLRELLEQQQQERND | 3.01
ILREELQKQRLREILELQQQERND | 4.29
ILREELQKQRLREILEQQQPERND | 4.17
ILRKELQKQRLREILEQQQQERND | 3.22
ILREELQKNRLREILEQQQQERND | 3.79
ILREVLQKQRLREILEQQQQERND | 2.42
ILREELQKQRLREILEQQQQERNE | 4.12
ILIEELQKQRLREILEQQQQERND | 2.91
ILREELQKQRLREMLEQQQQERND | 4.3
ILREELQKQRLREILVQQQQERND | 3.9
ILREELQKQKLREILEQQQQERND | 4.59
ILDEELQKQRLREILEQQQQERND | 5.06
ILREELQKQRLREILEQQQQERHD | 4.04

Variant | protein stability index
ILREELQKQWLREILEQQQQERND | 3.23
ILMEELQKQRLREILEQQQQERND | 3.68
ILREELQKQRLRNILEQQQQERND | 4.05
ILREELQKQRLREILEQQQNERND | 4.3
ILREELQKQRLRYILEQQQQERND | 4.07
ILREELQKQRLREILAQQQQERND | 3.07
ILREELQKQRLREILEQQQQEAND | 4.4
ILREELQKQRLREILLQQQQERND | 3.63
ISREELQKQRLREILEQQQQERND | 5.33
ILREELQKQRLREILEQQQQERNT | 4.01
ILREELQKQRLREILEQQQQERPD | 4.47
INREELQKQRLREILEQQQQERND | 5.57
ILREELQKQRLREILEQQGQERND | 4.57
ILREELWKQRLREILEQQQQERND | 2.37
ILREELQKQRLREILERQQQERND | 3.77
ILREELQKQRKREILEQQQQERND | 4.31
ILREELQKQCLREILEQQQQERND | 3.28
ILREELQGQRLREILEQQQQERND | 4.82
ILREELQKQRLREILEQQQQPRND | 3.04
ILREELQKQNLREILEQQQQERND | 4.51
